Columns and labels:
[1] = tested on: scFab-TC1-eGFP fusion protein; assay: IMiD-induced degradation of scFab-TC1-eGFP in HEK 293T cells, flow cytometry for GFP fluorescence; format: cell-based; conditions: HEK 293T cells transfected with scFab-TC1-eGFP; 1000 nM, 100 nM or 10 nM for 20 hours; GFP fluorescence intensity
Description: Fab TC1 was converted into a previously described single-chain Fab construct using Gibson cloning (Hornsby, et al., Mol. Cell. Proteomics, 14:2833-2847 (2015)) and subsequently fused to eGFP by Gibson cloning into a pcDNA3.1 vector to produce an expression vector encoding an scTC1-eGFP fusion protein.
K562 and HEK293T cells utilized were from frozen stocks maintained by the Wells lab. The cell lines were not authenticated before use. No test for mycoplasma contamination was performed. Cells expressing scTC1-eGFP were transfected with FugeneHD transfection reagent purchased from Promega using the manufacturer's protocol. Unless otherwise noted all Jurkat and K562 cells lines were cultured in RPMI supplemented with 10% FBS and 1× Pen/Strep. CD19^+ K562 cells were maintained in puromycin (2 μg/mL). HEK293T cells containing the Gal4-UAS-Fluc operon were maintained in High Glucose DMEM supplemented with 10% FBS, 1× Pen/Strep, and puromycin (2 μg/mL). All cell lines were cultured at 37° C. under 5% CO2.
HEK 293T cells (ATCC® CRL-3216™) were transfected to express scFab-TC1-eGFP. Transfected cells were treated with thalidomide, lenalidomide, or pomalidomide at 1000 nM, 100 nM, or 10 nM for 20 hours, after which GFP fluorescence intensity was measured by flow cytometry. Treatment with DMSO was included as a negative control.

[2] = target: T1, cereblon IMiD-binding domain (SEQ ID NO: 25) (Homo sapiens, UniProt Q96SW2); assay: Fab ELISA with cereblon IMiD-binding domain in the presence or absence of IMiD; conditions: thalidomide, lenalidomide or pomalidomide, FIG. 2G
T1 construct: TEV cut site; HIS6 tag; made in house; host or cells: E. coli BL21(DE3)
Description: ELISAs were performed according to standard protocols. […] 20 nM of biotinylated cereblon was captured on the NeutrAvidin-coated wells for 30 minutes followed by the addition of various concentrations of Fab with either 5 μM thalidomide, lenalidomide, or pomalidomide or 0.05% DMSO for 30 minutes. The bound Fabs were then detected using a horseradish peroxidase (HRP)-conjugated anti-Fab monoclonal antibody (Jackson ImmunoResearch 109-036-097).
(§1) The unique Fabs from Example 1 were sub-cloned into a bacterial expression vector, expressed, and purified (Hornsby, et al., Mol. Cell. Proteomics, 14:2833-2847 (2015)). […] To further profile the Fabs, we characterized the kinetics of cereblon IMiD-binding domain binding for Fab-TC2 and Fab-PC1 in the presence or absence of their respective IMiD by biolayer interferometry (FIGS. 3A and 3B) (Shah, et al., J. Vis. Exp., e51383 (2014)).

[3] = target: T2, cereblon IMiD-binding domain (Homo sapiens, UniProt Q96SW2); assay: Biolayer interferometry binding kinetics of Fabs to cereblon IMiD-binding domain; conditions: for binding to the cereblon IMiD-binding domain alone: absence of IMiD
T2 construct: TEV cut site; HIS6 tag; made in house; host or cells: E. coli BL21(DE3)
Description: Biolayer interferometery data were measured using an Octet RED384 instrument (ForteBio). Biotinylated cereblon was immobilized on a Streptavidin (SA) biosensor using a 200 nM solution. Serial dilutions of Fabs in kinetics buffer (PBS, pH 7.4, 0.05% Tween-20, 0.2% BSA, 10 μM biotin) with IMiD (1 μM) or vehicle (0.05% DMSO) were used as analyte. Affinity (KD) and kinetic parameters (kon and koff) were calculated from a global fit (1:1) of the data using the Octet RED384 software.
as §1

[4] = target: T3, pomalidomide-bound cereblon IMiD-binding domain (Pongo abelii (Sumatran orangutan) …, UniProt Q5R6Y2 306-414, biotinylated on its AviTag); assay: Fab-phage competition ELISA (OD450): binding to immobilized IMiD-bound cereblon IMiD-binding domain with 20 nM soluble competitor divided by binding without competitor
T3 construct: not shown: TEV cut site, AviTag and HIS6 tag fused to the domain
T3 sequence: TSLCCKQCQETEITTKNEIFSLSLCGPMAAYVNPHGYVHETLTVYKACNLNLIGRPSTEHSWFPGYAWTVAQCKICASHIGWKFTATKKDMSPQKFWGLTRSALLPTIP

[5] = in the presence of lenalidomide
[6] = in the presence of pomalidomide

Molecule: Nc1cccc2c1CN(C1CCC(=O)NC1=O)C2=O (stereo not drawn) [lenalidomide]
- GFP expression compared to the DMSO control [1]: reduced GFP expression

Molecule: Nc1cccc2c1C(=O)N(C1CCC(=O)NC1=O)C2=O (stereo not drawn) [pomalidomide]
- GFP expression compared to the DMSO control [1]: reduced GFP expression

Molecule: O=C1CCC(N2C(=O)c3ccccc3C2=O)C(=O)N1 (stereo not drawn) [thalidomide]
- GFP expression compared to the DMSO control [1]: reduced GFP expression

B1: Fab-TC2: Fab-phage clone from thalidomide-cereblon IMiD-binding domain selection; CDRs SEQ ID NO: 2, 7, 12, 21, 22, 17 (antibody)
heavy: EISEVQLVESGGGLVQPGGSLRLSCAASGFNVSSSSIHWVRQAPGKGLEWVASIYSYYGSTYYADSVKGRFTISADTSKNTAYLQMNSLRAEDTAVYYCARTDSWYYYRYGGMDYWGQGTLVTVSSASTKGPSVFPLAPSSKSTSGGTAALGCLVKDYFPEPVTVSWNSGALTSGVHTFPAVLQSSGLYSLSSVVTVPSSSLGTQTYICNVNHKPSNTKVDKKVEPKSCDKTHTGGSHHHHHH
light: SDIQMTQSPSSLSASVGDRVTITCRASQSVSSAVAWYQQKPGKAPKLLIYSASSLYSGVPSRFSGSRSGTDFTLTISSLQPEDFATYYCQQYSWWWMPITFGQGTKVEIKRTVAAPSVFIFPPSDSQLKSGTASVVCLLNNFYPREAKVQWKVDNALQSGNSQESVTEQDSKDSTYSLSSTLTLSKADYEKHKVYACEVTHQGLSSPVTKSFNRGECGGSDYKDDDDK
- binding to the cereblon IMiD-binding domain bound to a different IMiD than the one used for selection [2]: all except one of the Fabs (Fab-phage clone TC2) was able to bind
- binding to the cereblon IMiD-binding domain alone [3]: no significant binding
- binding compared to binding in the presence of thalidomide [3, 5]: less potent binding
- binding to the cereblon IMiD-binding domain [3, 5]: potent and reversible binding
- binding compared to binding in the presence of thalidomide [3, 6]: less potent binding
- binding to the cereblon IMiD-binding domain [3, 6]: potent and reversible binding
- binding to the cereblon IMiD-binding domain ([3]; in the presence of thalidomide): potent and reversible binding

B2: Fab-PC1 (Fab)
heavy: EISEVQLVESGGGLVQPGGSLRLSCAASGFNVSSYSIHWVRQAPGKGLEWVASISSYSGSTSYADSVKGRFTISADTSKNTAYLQMNSLRAEDTAVYYCARSYFVEYYYYYGWPWGLDYWGQGTLVTVSSASTKGPSVFPLAPSSKSTSGGTAALGCLVKDYFPEPVTVSWNSGALTSGVHTFPAVLQSSGLYSLSSVVTVPSSSLGTQTYICNVNHKPSNTKVDKKVEPKSCDKTHTGGSHHHHHH
light: SDIQMTQSPSSLSASVGDRVTITCRASQSVSSAVAWYQQKPGKAPKLLIYSASSLYSGVPSRFSGSRSGTDFTLTISSLQPEDFATYYCQQSSYSYLFTFGQGTKVEIKRTVAAPSVFIFPPSDSQLKSGTASVVCLLNNFYPREAKVQWKVDNALQSGNSQESVTEQDSKDSTYSLSSTLTLSKADYEKHKVYACEVTHQGLSSPVTKSFNRGECGGSDYKDDDDK
notes: chains assembled here by putting the CDRs in place of the scaffold's own CDR stretches; also called Fab-phage clone PC1
- competition selectivity ratio [4]: < 0.5

B3: Fab-PC1: Fab-phage clone from pomalidomide-cereblon IMiD-binding domain selection; CDRs SEQ ID NO: 4, 9, 14, 21, 22, 19 (antibody)
heavy: B2 heavy
light: B2 light
- binding to the cereblon IMiD-binding domain alone [3]: no significant binding
- binding to the cereblon IMiD-binding domain [3, 5]: potent and reversible binding
- binding to the cereblon IMiD-binding domain [3, 6]: potent and reversible binding
- binding to the cereblon IMiD-binding domain ([3]; in the presence of thalidomide): potent and reversible binding

Source: patent US20220332776A1, “ANTIBODY […] INDUCED DIMERIZERS (AbCID) AS MOLECULAR […] AND USES THEREOF” (The Regents of the University of California, priority 2019, published 2022)
